Where no end group is shown, it is not given here. Tds = not defined here
molecular target: T1, GST-HA-ATG16L1(231–607) (human, UniProt Q676U5 231-607); test: peptide or protein array; peptides immobilised on glass slides through the N-terminal end with a Tds spacer (JPT); GST-HA-ATG16L1 fragment in PBS/0,05% Tween-20 with 5% BSA, 20-800 nM, 2 h at RT plus overnight at 4 °C; detected with anti-HA and anti-GST and Cy5-labelled secondary antibodies; binding normalised to the wild-type peptide; settings: both partners purified
T1 construct: ATG16L1, human, residues 231-607 (results and legend); the methods name the construct 230-607; includes the WD40 domain (WDD, 320-607); Limits differ between results (231-607) and methods (230-607); also called GST-HA-ATG16L1-230-607; recombinant protein that includes the WDD; source: HEK-293T, retrovirally transduced, purified (GSH-agarose, eluted with reduced GSH, concentrated)
T1 sequence (Q676U5 231-607): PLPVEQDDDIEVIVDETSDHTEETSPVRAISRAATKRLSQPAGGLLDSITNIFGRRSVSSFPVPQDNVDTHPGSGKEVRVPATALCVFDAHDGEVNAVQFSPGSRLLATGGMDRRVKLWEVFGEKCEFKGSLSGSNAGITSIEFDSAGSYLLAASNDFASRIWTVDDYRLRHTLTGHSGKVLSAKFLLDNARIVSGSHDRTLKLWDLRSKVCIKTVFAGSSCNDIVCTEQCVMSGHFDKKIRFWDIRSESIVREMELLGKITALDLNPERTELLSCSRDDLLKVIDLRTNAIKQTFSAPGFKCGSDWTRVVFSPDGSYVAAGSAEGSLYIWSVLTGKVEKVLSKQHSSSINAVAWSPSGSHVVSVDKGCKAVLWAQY

Binder	binding result
Tds-YVAPAASEKLSIYGDL (peptide, UniProt Q9BXS4 268-280, looked up, reading uncertain, TMEM59 residues 268-280 with extra alanines between Y268 and E272; only the changed stretch is printed; also called YVAPAASE (Y268-E272); source: synthetic peptide on microarray, ordered from JPT (Germany)) [TMEM59 peptide 268–280 with increased Y268-E272 distance (YVAPAASE)]	binds
Tds-YVPSEKLSIYGDL (peptide, UniProt Q9BXS4 268-280, looked up, reading uncertain, TMEM59 intracellular domain, residues 268-280; also called active TMEM59 peptide; source: synthetic peptide on microarray, ordered from JPT (Germany)) [TMEM59 peptide (residues 268–280), wild type]	binds
Tds-YVPSELYGDL (peptide, UniProt Q9BXS4 268-280, looked up, reading uncertain, TMEM59 residues 268-280 with native residues between E272 and Y277 deleted so that one (L) is left; only the changed stretch is printed; source: synthetic peptide on microarray, ordered from JPT (Germany)) [TMEM59 peptide 268–280 with decreased E272-Y277 distance (ELY)]	binds

The remaining lines, values ahead:

binding result	Binder
binds	Tds-YVPSEKAALASAIYGDL (peptide, UniProt Q9BXS4 268-280, looked up, reading uncertain, TMEM59 residues 268-280 with extra alanines between E272 and Y277; only the changed stretch is printed; source: synthetic peptide on microarray, ordered from JPT (Germany)) [TMEM59 peptide 268–280 with increased E272-Y277 distance (EKAALASAIY)]
binds	Tds-YEKLSIYGDL (peptide, UniProt Q9BXS4 268-280, looked up, reading uncertain, TMEM59 residues 268-280 with the native residues between Y268 and E272 deleted; only the changed stretch is printed; also called YE (Y268-E272); source: synthetic peptide on microarray, ordered from JPT (Germany)) [TMEM59 peptide 268–280 with decreased Y268-E272 distance (YE)]
